Source: the supplement of paper PMC12455559

Assays:
[1] = melting temperature (DSF); higher = more thermostable
How it was run: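 Values are melting temperatures from differential scanning fluorimetry. Candidate enzymes were expressed in E. coli C41(DE3), purified on nickel beads and freed by SUMO protease cleavage. In sealed PCR plates on a Bio-Rad CFX96, 45 μL enzyme (0 to 0.3 mg/mL) was combined with 5 μL 5X Sypro Orange. Fluorescence was recorded from 25 °C for 250 cycles, rising 0.3 °C per cycle at a ramp of 0.3 °C/s.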

[2] = purified protein yield per well (BCA); higher = higher soluble expression
How it was run: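 On an OT-2 robot, lysed cells were processed by binding protein to Ni-charged magnetic beads and releasing it with SUMO protease. Expression took place in E. coli C41(DE3), in 2 mL autoinduction cultures with 100 µg/mL kanamycin, for 2 h at 37 °C followed by 40 h at 18 °C. The Pierce Rapid Gold BCA kit was used to quantify purified protein yield in each well, with values under 25 ug (0.1 mg/mL) below the detection threshold.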

[3] = PET hydrolysis, aromatic products released after 48 h (umol product/mg enzyme); higher = more PET depolymerization activity
How it was run: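 Tagless, SUMO-cleaved candidate enzymes were purified on nickel beads, and 5 μg (50 μL) was added to 3.5 mg amorphous PET film or crystalline PET powder in 450 μL buffer. Buffers were 50 mM NaCitrate (pH 4.5, 5.5), 50 mM NaPhosphate (pH 6.5, 7.5) or glycine (pH 8.5). Sealed plates were incubated 48 h at 40 or 60 °C without shaking. PET hydrolysis activity is the aromatic product in the supernatant, read by absorbance at 260 and 280 nm against buffer blanks and expressed per mg enzyme.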

[4] = substrate: aFilm, 40 °C, pH 4.5
[5] = substrate: aFilm, 40 °C, pH 5.5
[6] = substrate: aFilm, 40 °C, pH 6.5
[7] = substrate: aFilm, 40 °C, pH 7.5
[8] = substrate: aFilm, 60 °C, pH 4.5
[9] = substrate: aFilm, 60 °C, pH 5.5
[10] = substrate: aFilm, 60 °C, pH 6.5
[11] = substrate: aFilm, 60 °C, pH 7.5
[12] = substrate: cryPow, 40 °C, pH 4.5
[13] = substrate: cryPow, 40 °C, pH 5.5
[14] = substrate: cryPow, 40 °C, pH 6.5
[15] = substrate: cryPow, 40 °C, pH 7.5
[16] = substrate: cryPow, 60 °C, pH 4.5
[17] = substrate: cryPow, 60 °C, pH 5.5
[18] = substrate: cryPow, 60 °C, pH 6.5
[19] = substrate: cryPow, 60 °C, pH 7.5

Sequence | melting temperature [1] | purified protein yield per well [2] | PET hydrolysis [3, 4] | PET hydrolysis [3, 5] | PET hydrolysis [3, 6] | PET hydrolysis [3, 7] | PET hydrolysis [3, 8] | PET hydrolysis [3, 9] | PET hydrolysis [3, 10] | PET hydrolysis [3, 11] | PET hydrolysis [3, 12] | PET hydrolysis [3, 13] | PET hydrolysis [3, 14] | PET hydrolysis [3, 15] | PET hydrolysis [3, 16] | PET hydrolysis [3, 17] | PET hydrolysis [3, 18] | PET hydrolysis [3, 19]
GQAPTTAAQVRASAFAKGPDPTEQTIKAQRGPFQIKQLSVAAQSGRGFNRGTIYYPTDTGQGTYGAIAVIPGFLEPEFITSWYGPTLASYGFVVMTLEPFAITDFPDPRSNQLLAAVDWLAADSPVKAQVDPNRLAVMGHSMGGGGALLAASKRPSLKAAVPLAPWNLYADFAGVTVPTLVIGADNDFIAPVGMHADPMYASIKASPNEGYLKLKNADHFTVNSYSATLTKFTVSWMKRYVDEDTRYTQFLCPAPQPDPSFASFQMTCPS [TEP173] | 41.2 C | 293 µg | < 3 | < 3 | < 3 | < 3 | < 3 | < 3 | < 3 | < 3 | < 3 | < 3 | < 3 | < 3 | < 3 | < 3 | < 3 | < 3
QPTLESLGNPGPYQVAYYDQLPEVDEYGAATLYFPANRGTDFGGVAIAPGFIEQQENIEWWGRHLASYGFAVLVLDTNNPRDDPQVRSEALLAALDVIRGEGARSGSPIRGKILNDRMAVMGHSMGGGGTLLAANRASDQLKAIIPFTPWLPNADFSSVAVPTLVLAGEVDRIASVAEHAWPHFQTLPEGIPRMYVEIAGGNHFIANSTTDQERLNPNIDVHDLVGALGVAWLKYFVDGDEDYRDLIYGELPAEQRARLSRFEFVQ [TEP107] | 44.5 C | 57.2 µg |  |  |  |  |  |  |  |  | < 3 | < 3 | < 3 | < 3 | < 3 | < 3 | < 3 | < 3
QAPDRTALARTGPYQVAYYTQLPPAAEFSAATLFFPANKAQAFGGVVIAPGYTEKQVNVQWWGYHLASHGYAVLVLDTNDPEEYPDRRADALMAGVAVLRGENTRMGSTLRGKILEGRIALMGHSMGGGGTLLAANGHSDQLKTIIPFTPWLPGADFSAVSVPTLVLAGEIDRIAAVKDHAWPHYESLTGAVPRMYLEVKGGNHYIANSMTDREDRNPNIDVHDLVGSMVVAWLKTFLDDDESYRELVFGDLPEADRVRISRLEFVE [TEP006] | 53.5 C | 215 µg | < 3 | < 3 | < 3 | < 3 | < 3 | < 3 | < 3 | < 3 | < 3 | < 3 | < 3 | < 3 | < 3 | < 3 | < 3 | < 3
SNPAPDTGSGDGSSSQYQIGPDPTVSFLEASSGPFSVRTSNVSSLVSGFGGGTIHYPTGVNRPMAAIVVIPGFVSAESSIDWWGPKLASYGFVVMTIGTNSGFDQPPSRARQINNALDYLVAQNTNSRSPVNGMIDTNRLGAMGWSMGGGGTLRVAEEGRIKAAIPLAPWDTTSFRSNRTPTLIFACGSDSIAPVRTHASPFYNQIPTSTPKIFIEINRGNHYCANGGNSNNATLGRLGVAWMKRFLDEDRRYSQFLCGPRHTSDRNISESRDTCNF [ESM186] | 53.8 C | 43 µg |  |  |  |  |  |  |  |  | < 3 | < 3 | 3 | 13 |  |  |  | 
ADNPYQRGPDPTTASVAATRGTFATAEQTVGGGNGFAAGKIYYPIDTSQGTFGAIAIVPGYTATWAAEGAWMGPWLASFGFVVIGIDTNSRNDYDTARGTQLLAALDYLTQRSPVSGRVDAKRLSVMGHSMGGGGAVYAAIHRPSLWAAVGLAPFSPSQNLTTDKVPALLLAGQNDGTVSPSSVQSLYNGIPAGVEKGYLELAGAGHGFPTSSNSVMMRRVIPWLKIFVDHDSRYSKFLCPSLADSTGISGYRSTCPLDVPGGGDPGPGDQAVSLVGAGSGKCIDVPNQSQANGTALVVWTCNGGTNQRWTPTSAGELRVYNGTKCMDAGSGQPGTAVTINACGGGNSQKWTVNATGTITNAQAGACLDVSGGGTADNTPVIVWNCTGAANQVWTRQM [ESM103] | 51.7 C | 48.2 µg |  |  |  |  |  |  |  |  | < 3 | < 3 | < 3 | < 3 |  |  |  | 
LNPYQRGPNPTDAILEASSGPYATSSISVPSIVSGFGGGRIYYPTTTADGTFGGIAISPGFTATWSSLSWLGPRLASHGFVVIGIETNTIYDQPTSRGQQLLAALDYLVNTSSVRTRVDSSRLAVAGHSMGGGGTLWAANSRPSLQAAIPLAPWNTDKSWSGVRVPTLIVGGQSDTVAPVATHSIPFYTSIPAASEKAYLELRSASHFFPQTVNTTVAVSMVSWLKRYVDDDTRYDPWLCPGPSGLSVSDYRDTCPA [TEP178] | 52 C | 64.5 µg |  |  |  |  |  |  |  |  | < 3 | 6 | 21 | 29 | < 3 | < 3 | 3 | 4
